Data from US20250152705A1, “COMBINATION THERAPY COMPRISING AN ANTI-IL-23 ANTIBODY AND A CORTICOSTEROID FOR TREATING PSORIASIS” (priority 2022, published 2025).

Assays:
[1] = tested on: moderate to severe plaque psoriasis; assay: Prospective, open-label study of effectiveness of tildrakizumab plus topical halcinonide ointment; assay type: in vivo, human; conditions: for improvement of mean DLQI from baseline: patients with BSA≤3% at week 16, no halcinonide ointment
[2] = tested on: patients with moderate to severe plaque psoriasis; assay: Safety outcomes (AEs, SAEs) in the open-label study; assay type: in vivo, human; conditions: through week 24
Method: This was a single center, prospective, open-label study to evaluate the effectiveness and safety of tildrakizumab (ILUMYA® [tildrakizumab-asmn] in combination with halcinonide ointment (HALOG® ointment [Halcinonide Ointment, USP, 0.1%) for treating moderate to severe plaque psoriasis. The study protocol was approved by an institutional review board and the study was conducted in accordance with ethical guidelines. Written informed consent was obtained by all patients before initiating treatment.
All enrolled patients received tildrakizumab (100 mg) by subcutaneous injection at weeks 0, 4, and 16. Patients with BSA>3% at week 16 applied halcinonide ointment twice daily for 4 weeks and then continued without halcinonide for an additional 4 weeks of follow up. Patients with BSA≤3% at week 16 were also followed up to week 24. All patients were evaluated for safety and efficacy at weeks 4, 8, 16, 20 and 24.
The primary endpoint of the study was the proportion of patients with BSA≤3% at week 16. […] Improvements in PGA, the composite PGA×BSA measure, and DLQI were also evaluated as secondary endpoints. […]
A cohort of approximately 25 participants was planned for enrollment in the study. […] AEs and SAEs were summarized descriptively by frequency and severity, and their causal relationship to treatment was assessed.

[3] = patients with BSA>3% at week 16, week 16
[4] = patients with BSA≤3% at week 16, no halcinonide, week 16

B1: tildrakizumab (antibody, chains of the INN, looked up, V domains shown)
VH: QVQLVQSGAEVKKPGASVKVSCKASGYIFITYWMTWVRQAPGQGLEWMGQIFPASGSADYNEKFEGRVTMTTDTSTSTAYMELRSLRSDDTAVYYCARGGGGFAYWGQGTLVTVSS
VL: DIQMTQSPSSLSASVGDRVTITCRTSENIYSYLAWYQQKPGKAPKLLIYNAKTLAEGVPSRFSGSGSGTDFTLTISSLQPEDFATYYCQHHYGIPFTFGQGTKVEIK
Q: What does the source list for B1?
A: decrease of mean DLQI from baseline ([1]; all patients, week 16): 68%; proportion of patients achieving PASI 75 ([1]; all patients, week 16): 60.9%; proportion of patients achieving PASI 90 ([1]; all patients, week 16): 17.4%; proportion of patients achieving PASI 100 (complete resolution) ([1]; all patients, week 16): 4.3%; proportion of patients with BSA≤1% ([1]; all patients, week 16): 21.7%; reduction in mean BSA involvement from baseline ([1]; all patients, week 16): 74%; proportion of patients reporting a DLQI score of 0 or 1 ([1]; all patients, week 16 (baseline 4.0%)): 39.2%; mean BSA involvement ([1]; all patients, week 16 (baseline 19.1%)): 5.0%; proportion of patients with BSA≤3% ([1]; all patients, week 16, tildrakizumab 100 mg sc at weeks 0, 4, 16): 52.2%; BSA≤3% response at weeks 20 and 24 ([1]; most patients with BSA≤3% at week 16 (no halcinonide use) who completed the study): maintained a BSA≤3%; reduction from baseline in mean BSA [1, 3]: 55%; reduction from baseline in mean PGA [1, 3]: 29%; reduction from baseline in mean PGA×BSA [1, 3]: 64%; reduction in mean DLQI from baseline [1, 3]: 50%; improvement of mean DLQI from baseline ([1]; week 16): 84%; improvement of mean DLQI from baseline ([1]; weeks 20 and 24): remained at similar levels; BSA, PGA and PGA×BSA responses ([1]; patients with BSA≤3% at week 16, no halcinonide, through week 24): maintained; reduction of mean BSA from baseline [1, 4]: 89%; reduction of mean PGA from baseline [1, 4]: 60%; reduction of mean PGA×BSA from baseline [1, 4]: 95%; number of patients with BSA>3% ([1]; week 16): 11 patients; number of patients with BSA≤3% ([1]; week 16): 12 patients; serious adverse events (SAEs) [2]: no SAEs; tolerability [2]: well tolerated
